The labels stand for the following.
B1: MFF (parent)
chain: DDLTVVDAASLRRQIIKLNRRLQL
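Note: lentivirally expressed fusions sorted by FACS into six bins by GFP to DsRed ratio, PSI derived from sequencing read proportions per bin multiplied by bin number.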

In this data set the parent is B1. As to the kind of experiment: protein stability index of a GFP-peptide fusion (GPS, HEK-293T) (PSI 1-6); higher = more stable. The conditions noted are these: c terminus: a fixed tail appended.
In the case of DDLTVVDAASLRRQIIKLNERLQL, the protein stability index worked out at 2.02.
Under DDLTVVDAASLRRQIIKLNFRLQL stands 2.43; under DDLTVVDAASLRRQIIKLNNRLQL, 2.4; under DDLTVVDAASLRRQIIKLNPRLQL, 2.79.
Under DDLTVVDAASLRRQIIKLNGRLQL stands 2.04; under DDLTVVDAASLRRQIIKLNSRLQL, 1.96.
Under DDLTVVDAASLRRQIIKLNIRLQL stands 2.07; under DDLTVVDAASLRRQIIKLNMRLQL, 2.21.
DDLTVVDAASLRRQIIKLNLRLQL: the protein stability index turned out to be 2.37.
Under DDLTVVDAASLRRQIIKLNKRLQL stands 1.02.
Under DDLTVVDAASLRRQIIKLNHRLQL stands 2.26; under DDLTVVDAASLRRQIIKLNDRLQL, 2.82.
Under DDLTVVDAASLRRQIIKLNTRLQL stands 2.76.
With DDLTVVDAASLRRQIIKLNCRLQL, the protein stability index is 2.06.
Under DDLTVVDAASLRRQIIKLNQRLQL stands 1.85; under DDLTVVDAASLRRQIIKLNVRLQL, 1.9.
Under DDLTVVDAASLRRQIIKLNYRLQL stands 1.74; under DDLTVVDAASLRRQIIKLNWRLQL, 1.37.
As for DDLTVVDAASLRRQIIKLNARLQL, the protein stability index worked out at 1.9.
Under DDLTVVDAASLRRQIIKLVRRLQL stands 2.25.
Under DDLTVVDAASLRRQIIKLYRRLQL stands 1.85; under DDLTVVDAASLRRQIIKLWRRLQL, 2.86; under DDLTVVDAASLRRQIIKLNRRPQL, 3.52.
Under DDLTVVDAASLRRQIIKLNRRHQL stands 2.95; under DDLTVVDAASLRRQIIKLNRRCQL, 1.91; under DDLTVVDAASLRRQIIKLNRRSQL, 3.6.
Take DDLTVVDAASLRRQIIKLNRRWQL: the protein stability index is 2.4.
Regarding DDLTVVDAASLRRQIIKLNRRKQL, the protein stability index turned out to be 3.74.
The figure for DDLTVVDAASLRRQIIKLNRRVQL is 2.61; for DDLTVVDAASLRRQIIKLNRRAQL it is 3.25; for DDLTVVDAASLRRQIIKLNRRIQL it is 1.99.
In the case of DDLTVVDAASLRRQIIKLNRRYQL, the protein stability index is 2.7.
Take DDLTVVDAASLRRQIIKLNRRFQL: the protein stability index came to 2.36.
As for DDLTVVDAASLRRQIIKLNRRQQL, the protein stability index is 3.21.
Under DDLTVVDAASLRRQIIKLNRRRQL stands 3.01.
Under DDLTVVDAASLRRQIIKLNRRDQL stands 3.95; under DDLTVVDAASLRRQIIKLNRRGQL, 3.13; under DDLTVVDAASLRRQIIKLNRRTQL, 2.62.
The figure for DDLTVVDAASLRRQIIKLNRRMQL is 3.02.
Take DDLTVVDAASLRRQIIKLNRREQL: the protein stability index was found to be 2.77.
The figure for DDLTVVDAASLRRQIIKLNRRNQL is 3.78; for DDLTVVDAASLRRQIIKLNRRLAL it is 1.57; for DDLTVVDAASLRRQIIKLNRRLHL it is 1.5.
Under DDLTVVDAASLRRQIIKLNRRLKL stands 2.38; under DDLTVVDAASLRRQIIKLNRRLML, 2.43; under DDLTVVDAASLRRQIIKLNRRLPL, 2.62.
The figure for DDLTVVDAASLRRQIIKLNRRLVL is 1.34; for DDLTVVDAASLRRQIIKLNRRLNL it is 2.31; for DDLTVVDAASLRRQIIKLNRRLCL it is 1.91.
DDLTVVDAASLRRQIIKLNRRLIL: the protein stability index came out at 2.14.
For the variant DDLTVVDAASLRRQIIKLNRRLFL, the protein stability index stood at 2.32.
DDLTVVDAASLRRQIIKLNRRLTL: the protein stability index was determined as 2.08.
Under DDLTVVDAASLRRQIIKLNRRLRL stands 2.23; under DDLTVVDAASLRRQIIKLNRRLEL, 2.5.
As for DDLTVVDAASLRRQIIKLNRRLDL, the protein stability index was determined as 2.33.
Take DDLTVVDAASLRRQIIKLNRRLLL: the protein stability index was 2.15.
The figure for DDLTVVDAASLRRQIIKLNRRLGL is 2.5; for DDLTVVDAASLRRQIIKLNRRLSL it is 2.63; for DDLTVVDAASLRRQIIKLNRRLQQ it is 2.89.
On to DDLTVVDAASLRRQIIKLNRRLQN, for which the protein stability index was determined as 2.35.
The figure for DDLTVVDAASLRRQIIKLNRRLQD is 2.77.
The figure for DDLTVVDAASLRRQIIKLNRRLQI is 2.32; for DDLTVVDAASLRRQIIKLNRRLQV it is 3.01.
The figure for DDLTVVDAASLRRQIIKLNRRLQG is 2.56; for DDLTVVDAASLRRQIIKLNRRLQA it is 2.29; for DDLTVVDAASLRRQIIKLNRRLQE it is 2.23.
Take DDLTVVDAASLRRQIIKLNRRLQH: the protein stability index amounted to 2.21.
Take DDLTVVDAASLRRQIIKLNRRLQT: the protein stability index was found to be 2.38.
For DDLTVVDAASLRRQIIKLNRRLQK, the protein stability index worked out at 2.99.
With DDLTVVDAASLRRQIIKLNRRLQY, the protein stability index was 1.72.
Under DDLTVVDAASLRRQIIKLNRRLQR stands 2.74; under DDLTVVDAASLRRQIIKLNRRLQS, 2.42; under DDLTVVDAASLRRQIIKLNRRLQF, 1.8.
Under DDLTVVDAASLRRQIIKLNRRLQM stands 1.71.
Under DDLTVVDAASLRRQIIKLNRRLQW stands 1.94; under DDLTVVDAASLRRQIIKLNRRLQC, 2.06.
Regarding DDLTVVDAASLRRQIIKLNRRLQP, the protein stability index amounted to 2.89.
For the variant DDLTVVDAASLRRQIIKLNRGLQL, the protein stability index was found to be 1.84.
The figure for DDLTVVDAASLRRQIIKLNRVLQL is 1.79; for DDLTVVDAASLRRQIIKLNRNLQL it is 2.46; for DDLTVVDAASLRRQIIKLNRPLQL it is 2.99.
The figure for DDLTVVDAASLRRQIIKLNRHLQL is 1.6.
Under DDLTVVDAASLRRQIIKLNRELQL stands 1.46.
With DDLTVVDAASLRRQIIKLNRMLQL, the protein stability index stood at 1.14.
Under DDLTVVDAASLRRQIIKLNRALQL stands 1.57; under DDLTVVDAASLRRQIIKLNRTLQL, 1.91.
DDLTVVDAASLRRQIIKLNRDLQL: the protein stability index was 1.73.
Under DDLTVVDAASLRRQIIKLNRCLQL stands 1.95.
The figure for DDLTVVDAASLRRQIIKLNRLLQL is 1.33; for DDLTVVDAASLRRQIIKLNRQLQL it is 1.84.
The figure for DDLTVVDAASLRRQIIKLNRKLQL is 1.88; for DDLTVVDAASLRRQIIKLNRYLQL it is 1.94.
For the variant DDLTVVDAASLRRQIIKLNRSLQL, the protein stability index worked out at 2.98.
Under DDLTVVDAASLRRQIIKLNRFLQL stands 2.33; under DDLTVVDAASLRRQIIKLNRWLQL, 1.91.
